Molecular target: NB88
Test: SPR

B1: CaSR ECD (extracellular domain of human calcium-sensing receptor) (domain or fragment)
chain: YGPDQRAQKKGDIILGGLFPIHFGVAAKDQDLKSRPESVECIRYNFRGFRWLQAMIFAIEEINSSPALLPNLTLGYRIFDTCNTVSKALEATLSFVAQNKIDSLNLDEFCNCSEHIPSTIAVVGATGSGVSTAVANLLGLFYIPQVSYASSSRLLSNKNQFKSFLRTIPNDEHQATAMADIIEYFRWNWVGTIAADDDYGRPGIEKFREEAEERDICIDFSELISQYSDEEEIQHVVEVIQNSTAKVIVVFSSGPDLEPLIKEIVRRNITGKIWLASEAWASSSLIAMPQYFHVVGGTIGFALKAGQIPGFREFLKKVHPRKSVHNGFAKEFWEETFNCHLQEGAKGPLPVDTFLRGHEESGDRFSNSSTAFRPLCTGDENISSVETPYIDYTHLRISYNVYLAVYSIAHALQDIYTCLPGRGLFTNGSCADIKKVEAWQVLKHLRHLNFTNNMGEQVTFDECGDLVGNYSIINWHLSPEDGSIVFKEVGYYNVYAKKGERLFINEEKILWSGFSREVPFSNCSRDCLAGTRKGIIEGEPTCCFECVECPDGEYSDETDASACNKCPDDFWSNENHTSCIAKEIEFLS
  Kd: 3.9 nM
